Test results from article PMC2112417.

Tests used:
[1] = molecular target: PDGF receptor on Swiss mouse 3T3 cells (mouse (endogenous in Swiss 3T3)) (UniProt P05622); assay: radioligand binding
[2] = molecular target: EGF receptor on Swiss mouse 3T3 cells (mouse (endogenous in Swiss 3T3)) (UniProt Q01279); assay: radioligand binding

UniProt P05622, sequence (P05622 32-1098): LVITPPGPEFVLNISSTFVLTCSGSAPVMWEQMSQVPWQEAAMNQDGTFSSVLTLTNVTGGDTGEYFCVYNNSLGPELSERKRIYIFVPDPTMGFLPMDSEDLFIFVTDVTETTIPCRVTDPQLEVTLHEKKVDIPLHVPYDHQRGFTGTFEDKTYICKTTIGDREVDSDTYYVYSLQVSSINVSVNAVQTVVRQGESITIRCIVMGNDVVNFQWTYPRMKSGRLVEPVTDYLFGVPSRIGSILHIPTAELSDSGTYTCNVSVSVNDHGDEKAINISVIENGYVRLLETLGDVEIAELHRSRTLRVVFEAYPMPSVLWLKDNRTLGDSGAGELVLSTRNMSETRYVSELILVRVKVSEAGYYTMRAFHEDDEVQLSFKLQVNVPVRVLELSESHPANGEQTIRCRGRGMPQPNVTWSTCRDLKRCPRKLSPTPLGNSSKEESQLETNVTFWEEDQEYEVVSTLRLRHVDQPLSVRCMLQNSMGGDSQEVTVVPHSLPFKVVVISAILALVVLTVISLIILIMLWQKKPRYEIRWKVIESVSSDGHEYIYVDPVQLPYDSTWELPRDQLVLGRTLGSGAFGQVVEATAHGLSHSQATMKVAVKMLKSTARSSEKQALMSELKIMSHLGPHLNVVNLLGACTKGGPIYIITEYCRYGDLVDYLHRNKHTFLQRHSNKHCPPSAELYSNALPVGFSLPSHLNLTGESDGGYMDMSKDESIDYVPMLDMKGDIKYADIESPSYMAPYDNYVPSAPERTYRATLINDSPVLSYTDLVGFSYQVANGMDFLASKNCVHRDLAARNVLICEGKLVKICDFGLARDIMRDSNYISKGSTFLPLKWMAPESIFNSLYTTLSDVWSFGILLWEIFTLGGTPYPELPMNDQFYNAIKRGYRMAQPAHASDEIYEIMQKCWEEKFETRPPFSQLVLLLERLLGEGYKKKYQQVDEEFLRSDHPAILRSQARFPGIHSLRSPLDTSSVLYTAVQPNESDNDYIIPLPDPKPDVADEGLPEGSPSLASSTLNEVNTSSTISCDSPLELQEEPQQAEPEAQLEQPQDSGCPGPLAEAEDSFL

Row | binding to acid-treated cultures, % of binding to untreated cultures [1] | % of prebound ligand removed by 3 min 0.1% acetic acid [2] | EC50 [2] | binding to acid-treated cultures, % of binding to untreated cultures [2] | decrease in 125I-EGF binding after preincubation with 2 ng/ml PDGF [2] | half-maximal binding after preincubation with 0.5 ng/ml PDGF [2] | half-maximal binding after preincubation with 10 ng/ml PDGF [2] | Substance
1 | 103% |  |  |  |  |  |  | 125I-platelet-derived growth factor (from UniProt P04085 87-211; P01127 82-190) (ligand)
2 |  | 78% | 1.3 nM | 101% | 60% | 1.6 nM | 2 nM | 125I-epidermal growth factor (ligand)
